± gives the standard deviation of the averaged measurements.
The sequences below were run on Saccharomyces cerevisiae (assay: protein stability index of tFT-peptide fusion (C-terminal peptide) (PSI (0-1 scale)); higher = more stable (slower turnover)). Conditions: genetic background: cdc34-1; temperature: 37 C.
Description: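 MPS profiling in S. cerevisiae of the tFT-X12 degron library: putative degron peptides plus stable controls, 12 aa, fused to the C-terminus of a sfGFP-mCherry timer. Cells are FACS-sorted into 8 mCherry/sfGFP bins and deep-sequenced. PSI runs from 0 (unstable) to 1 (stable). Backgrounds are wild type, das1Δ and doa10Δ at 30 °C, and wild type, das1Δ, cdc34-1 and cdc53-1 at 37 °C; 2-3 technical replicates each.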
In the case of VNFVLTLYPYLV, the protein stability index is reported as 0.512 ± 0.024.
With VPPLPPPGPPTF the protein stability index was 0.705 ± 0.0084.
With VQLLTRLKTPHP the protein stability index was 0.6608 ± 0.0013.
Sequence VRDQGWILNMLL has a protein stability index of 0.7266 ± 0.007.
Work on VRICVVLRVCWW yielded a protein stability index of 0.0855 ± 0.0017.
Work on VRINLLFVWFSR yielded a protein stability index of 0.407 ± 0.0067.
For VRLSQVNRLICT, the protein stability index was 0.554 ± 0.022.
VRRGAVWCCLCG gave a protein stability index of 0.666 ± 0.0079.
In the case of VRVLAALVLCVV, the protein stability index is reported as 0.159 ± 0.029.
Sequence VRYCFFWVRAVV has a protein stability index of 0.286 ± 0.027.
Work on VTGYLSTLTMLC yielded a protein stability index of 0.6 ± 0.015.
VTWNFIVYVCCF showed a protein stability index of 0.164 ± 0.0058.
VVFLWRCRLLLG gave a protein stability index of 0.276 ± 0.015.
For VVFRCSSFFCLV, the protein stability index was 0.54 ± 0.0062.
In the case of VVIYWFLPIIFA, the protein stability index is reported as 0.09487 ± 0.00071.
VVLGLFCVRMGT was tested, and the protein stability index was 0.541 ± 0.018.
VVLVGVAVCRLG showed a protein stability index of 0.4 ± 0.0065.
In the case of VVNFLVFRFFCI, the protein stability index is reported as 0.53 ± 0.046.
VVPYPFLTLLNI gave a protein stability index of 0.417 ± 0.026.
In the case of VVRVSFSFCLSC, the protein stability index is reported as 0.476 ± 0.023.
VVSVVVLVNSRG gave a protein stability index of 0.465 ± 0.029.
VVVLLLVVWFCL was tested, and the protein stability index was 0.29 ± 0.014.
VVVWLFRIKSNV was tested, and the protein stability index was 0.46 ± 0.012.
VWGLWRLCVWGV gave a protein stability index of 0.3896 ± 0.0011.
With VWLFSWSVVGGT the protein stability index was 0.436 ± 0.037.
With VWSVSVTIVGRR the protein stability index was 0.5289 ± 0.0013.
With VYFASCVVLLMV the protein stability index was 0.159 ± 0.028.
VYLVVLYLRYFA gave a protein stability index of 0.205 ± 0.031.
For VYVYTIRVRWSE, the protein stability index was 0.135 ± 0.024.
With WAFVVCGAVFFW the protein stability index was 0.264 ± 0.025.
Sequence WCLLGVPVRVVV has a protein stability index of 0.373 ± 0.014.
Work on WCVCVSMRMIAI yielded a protein stability index of 0.15 ± 0.015.
With WFIFATFLILVT the protein stability index was 0.0797 ± 0.0056.
WFLVLLFFWFLL gave a protein stability index of 0.524 ± 0.0097.
In the case of WFYLLFVLFGLV, the protein stability index is reported as 0.56 ± 0.026.
WHFPCPPLPCPV gave a protein stability index of 0.4132 ± 0.0036.
Sequence WILLVLACFSSG has a protein stability index of 0.25 ± 0.0033.
With WLGCVLIGWHVL the protein stability index was 0.355 ± 0.0098.
With WLKLWSYVTHLG the protein stability index was 0.66 ± 0.047.
WSLRFRRMMLRC gave a protein stability index of 0.3765 ± 0.00088.
With WVVVARIFSVFF the protein stability index was 0.484 ± 0.014.
WVVVKITAHTAT showed a protein stability index of 0.323 ± 0.028.
Sequence WYAGIVFTRVWM has a protein stability index of 0.54 ± 0.01.
In the case of YAFLWCVFYLSF, the protein stability index is reported as 0.228 ± 0.0071.
YCCDYFMFVLVV was tested, and the protein stability index was 0.148 ± 0.0029.
Sequence YDLRRIGRIGVG has a protein stability index of 0.316 ± 0.02.
Work on YFIVVSWFLVCW yielded a protein stability index of 0.0981 ± 0.019.
Work on YFLFRYIVITVF yielded a protein stability index of 0.0486 ± 0.029.
YFRKDYRKMAQH showed a protein stability index of 0.594 ± 0.049.
YGAGDLTKYFIV was tested, and the protein stability index was 0.637 ± 0.037.
Sequence YHFRLLVTCCPC has a protein stability index of 0.273 ± 0.0031.
YLCCFSVAFFLG was tested, and the protein stability index was 0.175 ± 0.0039.
For YLFDQYDWYKSM, the protein stability index was 0.643 ± 0.063.
YLLTAFLSAFNP gave a protein stability index of 0.554 ± 0.054.
In the case of YLMVSKMSLRIG, the protein stability index is reported as 0.602 ± 0.021.
YPGMFLQLVWWI gave a protein stability index of 0.4297 ± 0.0022.
For YPSASLLPLFSC, the protein stability index was 0.594 ± 0.06.
With YQFDGLVFLRLS the protein stability index was 0.716 ± 0.02.
Sequence YRFVWRWIPICA has a protein stability index of 0.0342 ± 0.01.
Sequence YRWERIYIGLRL has a protein stability index of 0.397 ± 0.037.
YSALHNPPQPVT gave a protein stability index of 0.665 ± 0.032.
In the case of YTLWFLAWGLVF, the protein stability index is reported as 0.262 ± 0.036.
Work on YWRNYLVLVCKF yielded a protein stability index of 0.836 ± 0.04.
YYLHFRFFIYVF gave a protein stability index of 0.0536 ± 0.019.

Same assay, conditions: genetic background: cdc53-1; temperature: 37 C
VNFVLTLYPYLV showed a protein stability index of 0.577 ± 0.019.
With VPPLPPPGPPTF the protein stability index was 0.7583 ± 0.0011.
In the case of VQLLTRLKTPHP, the protein stability index is reported as 0.7443 ± 0.0035.
Sequence VRDQGWILNMLL has a protein stability index of 0.771 ± 0.024.
For VRICVVLRVCWW, the protein stability index was 0.139 ± 0.00094.
With VRINLLFVWFSR the protein stability index was 0.472 ± 0.028.
With VRLSQVNRLICT the protein stability index was 0.566 ± 0.065.
VRRGAVWCCLCG was tested, and the protein stability index was 0.73 ± 0.0094.
In the case of VRVLAALVLCVV, the protein stability index is reported as 0.306 ± 0.021.
With VRYCFFWVRAVV the protein stability index was 0.335 ± 0.019.
Sequence VTGYLSTLTMLC has a protein stability index of 0.654 ± 0.0097.
VTWNFIVYVCCF showed a protein stability index of 0.204 ± 0.0029.
VVFLWRCRLLLG gave a protein stability index of 0.346 ± 0.015.
VVFRCSSFFCLV gave a protein stability index of 0.6156 ± 0.006.
VVIYWFLPIIFA showed a protein stability index of 0.0751 ± 0.015.
Work on VVLGLFCVRMGT yielded a protein stability index of 0.606 ± 0.019.
VVLVGVAVCRLG gave a protein stability index of 0.47 ± 0.013.
In the case of VVNFLVFRFFCI, the protein stability index is reported as 0.531 ± 0.015.
Work on VVPYPFLTLLNI yielded a protein stability index of 0.407 ± 0.029.
For VVRVSFSFCLSC, the protein stability index was 0.498 ± 0.045.
Sequence VVSVVVLVNSRG has a protein stability index of 0.501 ± 0.067.
Work on VVVLLLVVWFCL yielded a protein stability index of 0.4134 ± 0.0018.
VVVWLFRIKSNV showed a protein stability index of 0.586 ± 0.0096.
VWGLWRLCVWGV showed a protein stability index of 0.479 ± 0.0054.
With VWLFSWSVVGGT the protein stability index was 0.5425 ± 0.0026.
In the case of VWSVSVTIVGRR, the protein stability index is reported as 0.573 ± 0.035.
Work on VYFASCVVLLMV yielded a protein stability index of 0.188 ± 0.025.
VYLVVLYLRYFA gave a protein stability index of 0.22 ± 0.011.
VYVYTIRVRWSE gave a protein stability index of 0.274 ± 0.039.
Sequence WAFVVCGAVFFW has a protein stability index of 0.358 ± 0.031.
In the case of WCLLGVPVRVVV, the protein stability index is reported as 0.391 ± 0.056.
WCVCVSMRMIAI gave a protein stability index of 0.193 ± 0.008.
Work on WFIFATFLILVT yielded a protein stability index of 0.112 ± 0.0058.
For WFLVLLFFWFLL, the protein stability index was 0.628 ± 0.055.
With WFYLLFVLFGLV the protein stability index was 0.614 ± 0.012.
For WHFPCPPLPCPV, the protein stability index was 0.42896 ± 0.0003.
Sequence WILLVLACFSSG has a protein stability index of 0.335 ± 0.051.
Work on WLGCVLIGWHVL yielded a protein stability index of 0.413 ± 0.0055.
For WLKLWSYVTHLG, the protein stability index was 0.723 ± 0.0092.
WSLRFRRMMLRC gave a protein stability index of 0.425 ± 0.0072.
WVVVARIFSVFF was tested, and the protein stability index was 0.561 ± 0.02.
Work on WVVVKITAHTAT yielded a protein stability index of 0.38 ± 0.021.
WYAGIVFTRVWM was tested, and the protein stability index was 0.611 ± 0.026.
Work on YAFLWCVFYLSF yielded a protein stability index of 0.235 ± 0.03.
Sequence YCCDYFMFVLVV has a protein stability index of 0.189 ± 0.024.
YDLRRIGRIGVG gave a protein stability index of 0.404 ± 0.012.
YFIVVSWFLVCW was tested, and the protein stability index was 0.199 ± 0.022.
YFLFRYIVITVF showed a protein stability index of 0.0672 ± 0.021.
Work on YFRKDYRKMAQH yielded a protein stability index of 0.74478 ± 0.00072.
In the case of YGAGDLTKYFIV, the protein stability index is reported as 0.684 ± 0.046.
With YHFRLLVTCCPC the protein stability index was 0.325 ± 0.0097.
Work on YLCCFSVAFFLG yielded a protein stability index of 0.331 ± 0.098.
For YLFDQYDWYKSM, the protein stability index was 0.7663 ± 0.007.
For YLLTAFLSAFNP, the protein stability index was 0.683 ± 0.018.
For YLMVSKMSLRIG, the protein stability index was 0.643 ± 0.0084.
YPGMFLQLVWWI gave a protein stability index of 0.552 ± 0.036.
In the case of YPSASLLPLFSC, the protein stability index is reported as 0.733 ± 0.017.
For YQFDGLVFLRLS, the protein stability index was 0.724 ± 0.0064.
For YRFVWRWIPICA, the protein stability index was 0.0919 ± 0.045.
YRWERIYIGLRL was tested, and the protein stability index was 0.523 ± 0.036.
Work on YSALHNPPQPVT yielded a protein stability index of 0.725 ± 0.014.
YTLWFLAWGLVF was tested, and the protein stability index was 0.308 ± 0.016.
With YWRNYLVLVCKF the protein stability index was 0.794 ± 0.075.
With YYLHFRFFIYVF the protein stability index was 0.0916 ± 0.0088.

Same assay, conditions: genetic background: das1 deletion; temperature: 30 C
VNFVLTLYPYLV showed a protein stability index of 0.507 ± 0.024.
For VPPLPPPGPPTF, the protein stability index was 0.667 ± 0.012.
For VQLLTRLKTPHP, the protein stability index was 0.656 ± 0.016.
For VRDQGWILNMLL, the protein stability index was 0.651 ± 0.032.
VRICVVLRVCWW gave a protein stability index of 0.115 ± 0.034.

— the supplement of paper PMC10724198
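Note: PSI is a weighted mean of sequencing reads over stability bins, variants kept only with over 10 reads, mCherry proximal and sfGFP distal, peptide attached via GGGS linker.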
